The target in this test is recombinant GST-Pak6 (from pMW-GST-Pak6, E. coli) (human, UniProt Q9NQU5 1-681). Nature of the test: pull-down. The following applies: both partners purified.
recombinant GST-Pak6 (from pMW-GST-Pak6, E. coli), sequence (Q9NQU5 whole entry): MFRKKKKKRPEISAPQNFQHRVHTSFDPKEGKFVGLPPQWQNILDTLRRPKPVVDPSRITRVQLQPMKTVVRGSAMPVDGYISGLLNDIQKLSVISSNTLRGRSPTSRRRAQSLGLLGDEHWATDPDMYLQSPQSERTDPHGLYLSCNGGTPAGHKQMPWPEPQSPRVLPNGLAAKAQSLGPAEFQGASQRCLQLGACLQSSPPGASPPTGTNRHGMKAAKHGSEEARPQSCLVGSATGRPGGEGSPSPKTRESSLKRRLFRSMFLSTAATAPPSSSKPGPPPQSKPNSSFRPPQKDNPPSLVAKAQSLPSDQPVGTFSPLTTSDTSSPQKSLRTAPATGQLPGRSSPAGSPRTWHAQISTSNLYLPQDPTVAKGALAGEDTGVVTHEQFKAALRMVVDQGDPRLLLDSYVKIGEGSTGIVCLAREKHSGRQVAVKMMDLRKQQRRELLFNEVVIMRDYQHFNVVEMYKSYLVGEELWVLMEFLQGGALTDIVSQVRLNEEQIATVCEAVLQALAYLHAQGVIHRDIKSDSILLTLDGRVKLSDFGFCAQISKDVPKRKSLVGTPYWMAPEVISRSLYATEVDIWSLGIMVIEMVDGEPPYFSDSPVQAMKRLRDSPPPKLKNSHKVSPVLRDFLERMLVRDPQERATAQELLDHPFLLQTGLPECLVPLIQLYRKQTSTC

B1: recombinant His-RhoD loaded with GTPγS (natural protein, mouse, UniProt P97348 1-210, looked up)
chain: MNASQVAGEEAPQSGHSVKVVLVGDGGCGKTSLMMVFAKGAFPESYSPTVFERYNATLQMKGKPVHLQIWDTAGQDDYDRLRPLFYPDANVLLLCFDVTNPNSFDNVSNRWYPEVTHFCKGVPIIVVGCKIDLRKDKVLVNNLRKKRLEPVTYHRGHDMARSVGAVAYLECSARLHDNVEAVFQEAAEVALSSRRHNFWRRITQNCCLAT
For B1, the binding result was “binds”.

The record behind these values is article PMC5425256 (Developmental Cell, 2017).
